Measured values from PMC4633989.

Target: Nrx-1 C-term peptide (last 10 C-terminal residues of Drosophila Nrx-1) (Drosophila) (UniProt Q3KN41)
Assay: ITC; Nrx-1 C-term peptide with the PDZ domains of Spn or Syd-1; details in the Supplementary Methods

Sequence of UniProt Q3KN41 (Q3KN41 whole entry, looked up, the tested form may be a part): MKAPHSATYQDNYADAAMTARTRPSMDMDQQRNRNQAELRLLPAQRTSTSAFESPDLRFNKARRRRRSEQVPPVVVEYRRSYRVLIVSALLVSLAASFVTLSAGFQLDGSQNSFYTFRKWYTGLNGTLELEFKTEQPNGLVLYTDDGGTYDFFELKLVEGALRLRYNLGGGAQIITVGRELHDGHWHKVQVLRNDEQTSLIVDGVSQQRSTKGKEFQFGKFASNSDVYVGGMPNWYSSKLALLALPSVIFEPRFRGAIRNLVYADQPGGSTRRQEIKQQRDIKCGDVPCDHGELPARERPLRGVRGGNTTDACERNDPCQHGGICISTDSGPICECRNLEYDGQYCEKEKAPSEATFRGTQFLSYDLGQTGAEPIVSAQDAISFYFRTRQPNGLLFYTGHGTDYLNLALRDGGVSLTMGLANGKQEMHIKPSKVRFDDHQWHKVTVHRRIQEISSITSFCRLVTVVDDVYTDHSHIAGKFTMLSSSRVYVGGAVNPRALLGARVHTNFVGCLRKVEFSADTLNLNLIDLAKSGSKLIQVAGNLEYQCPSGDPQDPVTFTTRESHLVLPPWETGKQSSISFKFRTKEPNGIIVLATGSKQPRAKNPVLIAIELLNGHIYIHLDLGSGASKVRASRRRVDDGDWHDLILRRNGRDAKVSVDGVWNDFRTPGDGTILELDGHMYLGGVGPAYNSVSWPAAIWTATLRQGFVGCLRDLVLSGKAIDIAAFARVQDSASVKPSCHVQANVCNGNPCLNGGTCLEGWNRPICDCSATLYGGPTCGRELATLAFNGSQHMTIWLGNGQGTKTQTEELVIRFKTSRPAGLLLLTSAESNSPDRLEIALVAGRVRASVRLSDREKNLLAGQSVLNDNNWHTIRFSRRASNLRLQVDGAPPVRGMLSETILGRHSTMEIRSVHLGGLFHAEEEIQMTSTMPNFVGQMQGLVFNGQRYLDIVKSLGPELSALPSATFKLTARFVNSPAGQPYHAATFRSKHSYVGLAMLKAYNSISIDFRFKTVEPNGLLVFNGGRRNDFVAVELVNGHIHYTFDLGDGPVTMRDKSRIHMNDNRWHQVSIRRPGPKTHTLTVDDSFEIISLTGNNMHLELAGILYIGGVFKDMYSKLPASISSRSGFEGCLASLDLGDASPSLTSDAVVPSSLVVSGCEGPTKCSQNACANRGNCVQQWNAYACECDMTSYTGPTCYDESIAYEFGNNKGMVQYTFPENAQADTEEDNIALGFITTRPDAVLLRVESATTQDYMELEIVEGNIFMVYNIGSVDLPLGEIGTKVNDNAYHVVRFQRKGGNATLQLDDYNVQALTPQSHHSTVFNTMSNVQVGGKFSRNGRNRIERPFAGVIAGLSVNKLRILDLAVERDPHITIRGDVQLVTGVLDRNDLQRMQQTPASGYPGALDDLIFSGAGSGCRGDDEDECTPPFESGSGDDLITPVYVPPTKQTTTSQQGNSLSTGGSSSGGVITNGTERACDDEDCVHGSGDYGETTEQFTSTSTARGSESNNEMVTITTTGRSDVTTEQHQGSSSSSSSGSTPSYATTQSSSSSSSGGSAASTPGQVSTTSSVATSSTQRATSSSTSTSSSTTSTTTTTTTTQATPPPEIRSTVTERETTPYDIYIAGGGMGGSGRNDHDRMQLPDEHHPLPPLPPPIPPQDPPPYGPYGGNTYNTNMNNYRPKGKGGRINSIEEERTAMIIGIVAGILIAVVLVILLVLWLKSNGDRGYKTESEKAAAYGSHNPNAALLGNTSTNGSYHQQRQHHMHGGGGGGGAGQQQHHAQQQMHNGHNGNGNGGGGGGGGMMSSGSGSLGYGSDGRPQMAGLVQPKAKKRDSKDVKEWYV

Kd	Substance
50 µM	Drosophila Spn-PDZ domain (dmSpn residues 1,258-1,347) (domain or fragment)
5 µM	Drosophila Syd-1-PDZ domain (dmSyd-1 residues 155-242) (domain or fragment)
